Residue numbers refer to the chain shown, from its start.
Legend:
[1] = molecular target: T1, human CDCP1 on tumor cells (human, UniProt Q9H5V8 30-836); test: flow cytometry, PC3 cells
T1 construct: whole, on cells; cell line is named under assay or readout
T1 sequence (looked up): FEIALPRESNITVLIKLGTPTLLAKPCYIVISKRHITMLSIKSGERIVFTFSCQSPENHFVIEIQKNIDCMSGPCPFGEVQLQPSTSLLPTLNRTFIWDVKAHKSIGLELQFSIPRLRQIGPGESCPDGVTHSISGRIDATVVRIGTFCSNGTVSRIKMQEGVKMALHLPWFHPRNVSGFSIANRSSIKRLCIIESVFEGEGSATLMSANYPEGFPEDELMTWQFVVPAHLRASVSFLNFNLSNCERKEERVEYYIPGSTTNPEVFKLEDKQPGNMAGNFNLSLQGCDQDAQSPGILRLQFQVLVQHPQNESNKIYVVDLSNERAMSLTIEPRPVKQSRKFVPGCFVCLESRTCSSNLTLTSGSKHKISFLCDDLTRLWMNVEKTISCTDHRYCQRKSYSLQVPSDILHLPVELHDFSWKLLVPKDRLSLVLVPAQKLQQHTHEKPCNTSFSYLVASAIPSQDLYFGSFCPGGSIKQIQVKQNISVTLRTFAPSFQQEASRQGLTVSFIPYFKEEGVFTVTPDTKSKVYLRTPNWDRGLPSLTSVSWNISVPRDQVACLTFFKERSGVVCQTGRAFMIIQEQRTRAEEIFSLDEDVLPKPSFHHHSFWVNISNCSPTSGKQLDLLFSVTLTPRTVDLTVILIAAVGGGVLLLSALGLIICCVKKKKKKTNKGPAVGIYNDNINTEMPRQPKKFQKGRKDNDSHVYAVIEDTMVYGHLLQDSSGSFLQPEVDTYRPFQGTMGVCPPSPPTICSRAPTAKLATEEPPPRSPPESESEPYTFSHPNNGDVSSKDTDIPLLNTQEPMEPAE
Description: Flow cytometry was used to detect the binding capacity of antibody to tumor cells. […] 2.0×10⁴ tumor cells were added per well, respectively, and 50 μL (PBS+2% FBS) were added, and after blocking at room temperature with an Fe blocker (Human TruStain FcX™, Biolegend, 422302) for 10 mins, an anti-CDCP1 murine monoclonal antibody at a final concentration of 200 nM was added. The obtained mixture was subjected to a 3-fold serial dilution across 8 concentration points, and incubated at 4° C. for 30 mins, and then incubated with a secondary antibody (PE anti-human IgG Fc Antibody, Biolegend, 410708), detection was performed using a flow cytometer.

HuCDCP1-C = molecular target: T2, HuCDCP1-C (human, UniProt Q9H5V8 30-667); test: SPR (Caterra), antigen immobilized
T2 construct: range 30-667; expressed in HEK-293T, purified by Fc/his tag; also called human CDCP1-C; full-length extracellular domain of human CDCP1; not shown: Fc or his tag
T2 sequence (looked up): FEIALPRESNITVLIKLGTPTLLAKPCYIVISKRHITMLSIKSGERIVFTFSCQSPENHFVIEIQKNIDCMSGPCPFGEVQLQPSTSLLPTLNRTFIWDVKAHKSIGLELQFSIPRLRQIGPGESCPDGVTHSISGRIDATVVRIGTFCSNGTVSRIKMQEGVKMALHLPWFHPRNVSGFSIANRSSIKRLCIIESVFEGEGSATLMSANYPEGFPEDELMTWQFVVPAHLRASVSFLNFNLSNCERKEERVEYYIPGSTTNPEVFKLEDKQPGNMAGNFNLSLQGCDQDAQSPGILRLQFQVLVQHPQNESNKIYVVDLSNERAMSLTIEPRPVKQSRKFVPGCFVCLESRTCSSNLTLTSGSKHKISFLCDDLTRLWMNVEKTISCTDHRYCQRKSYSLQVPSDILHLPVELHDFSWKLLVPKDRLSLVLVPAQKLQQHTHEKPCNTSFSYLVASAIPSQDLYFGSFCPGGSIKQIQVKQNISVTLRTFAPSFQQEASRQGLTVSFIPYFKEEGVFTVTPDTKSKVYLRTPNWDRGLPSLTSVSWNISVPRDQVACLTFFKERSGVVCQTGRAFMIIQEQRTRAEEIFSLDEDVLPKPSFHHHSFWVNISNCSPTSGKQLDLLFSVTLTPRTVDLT
Description: (§1) The humanized anti-CDCP1 antibodies obtained from Example 11 were subjected to gene cloning, constructed into pTT5 expression vector for a small amount of expression in CHO cells (Expi-CHOS: Gibco A29127), and purified with an Fc affinity column (AT Protein A Diamond Plus. No. AA402312). Antibody purity was analyzed by HPLC and determined by Nanodrop. High-throughput affinity assay was carried out for a small amount of antibodies by Caterra.

HuCDCP1-A = molecular target: T3, HuCDCP1-A (human, UniProt Q9H5V8 30-430); test: SPR (Caterra), antigen immobilized
T3 construct: range 30-430; expressed in HEK-293T, purified by Fc/his tag; also called human CDCP1-A; membrane-distal region of CDCP1; not shown: Fc or his tag
T3 sequence (looked up): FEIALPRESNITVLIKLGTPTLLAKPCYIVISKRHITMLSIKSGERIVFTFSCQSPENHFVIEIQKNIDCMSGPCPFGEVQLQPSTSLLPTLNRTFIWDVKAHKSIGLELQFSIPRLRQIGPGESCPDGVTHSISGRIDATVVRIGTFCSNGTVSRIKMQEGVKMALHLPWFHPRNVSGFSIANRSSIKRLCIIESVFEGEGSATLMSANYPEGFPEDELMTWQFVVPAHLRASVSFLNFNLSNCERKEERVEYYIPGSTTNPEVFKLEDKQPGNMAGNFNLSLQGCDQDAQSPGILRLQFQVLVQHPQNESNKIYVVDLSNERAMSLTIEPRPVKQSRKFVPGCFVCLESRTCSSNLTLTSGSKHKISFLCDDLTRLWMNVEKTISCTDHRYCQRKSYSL
Description: as §1
Further, Partial anti-CDCP1 humanized antibodies were selected for expression, and then the affinity of the antibodies to the antigens Hu-CDCP1-A, Hu-CDCP1-B, Cyno-CDCP1, and Ms-CDCP1 was detected according to the above affinity detection method.

[2] = molecular target: T1, human CDCP1 on tumor cells; test: flow cytometry, MDA-MB-231 cells
Description: Referring to the method of Example 4, MDA-MB-231 cells were taken and subjected to digestion with 5 mM EDTA, 2×10⁴ tumor cells were added respectively per well, and 50 μL (PBS+2% FBS) were added; after blocking at room temperature with Fc blocker for 10 mins, an anti-CDCP1 humanized antibody at a final concentration of 200 nM was added. The obtained mixture was subjected to a 3-fold serial dilution across 8 concentration points, incubated at 4° C. for 30 mins, centrifuged and washed, and then a secondary antibody (PE anti-human IgG Fc Antibody, Biolegend, 410708) was added, then detection was performed using a flow cytometer. Geo-MFI (geometric mean fluorescence signal value) was used as the preliminary signal of antibody-cell binding, curve fitting was performed using graphpad, and the binding capacity of antibody to cells was calculated.

B1: 5B8 (antibody, V domains shown)
VH: EVQLKESGGGLVQPGGSLRISCATSGLTFTHYHMSWVRQPPGKAPEWLAIIRNKAYGYTTDYSASVRGRFTISRDDSQSILYLQMNTLRAEDSATYYCVREGGYGYDGTFAYWGQGTTVTVSS
VL: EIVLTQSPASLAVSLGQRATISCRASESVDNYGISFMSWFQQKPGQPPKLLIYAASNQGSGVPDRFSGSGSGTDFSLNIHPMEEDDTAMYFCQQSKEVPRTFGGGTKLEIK
notes: murine hybridoma mAb
Q: B1 was tested. Which EC50 [1] did it give?
A: 0.91 nM

B2: 8C9 (antibody, V domains shown)
VH: B1 VH with A90P
VL: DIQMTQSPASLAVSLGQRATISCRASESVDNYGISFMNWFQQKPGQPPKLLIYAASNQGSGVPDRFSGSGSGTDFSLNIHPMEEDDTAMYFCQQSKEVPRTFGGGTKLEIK
notes: murine hybridoma mAb
Q: For B2, which EC50 [1] is on record?
A: 0.4 nM

B3: 3C11 (antibody, V domains shown)
VH: EVQLQQSGTVLARPGASVKMSCKASGYNFISYWLHWIKQRPGQGLEWIGGIYPGNTDTTYNQKFKGKAKVTAVTSATTAYMELSSLTNEDSAVYYCIRYDYDRGMDYWGQGTTVTVSS
VL: DIQMTQSPSSFSVSLGDRVTITCRASEDIYYRLAWYQQKPGNAPRLLISGATALETGVPSRFSGSGSGKDYTLSITSLQTEDVATYYCQHYWNIPWTFGGGTKLEIK
notes: murine hybridoma mAb
Q: B3 was tested. Which EC50 [1] did it give?
A: 0.23 nM

B4: 3B12H5 (antibody, V domains shown)
VH: EVQLQQSGTVLARPGASVKMSCKASGYSFTIYWVHWVKQRPGQGLEWIGAVYPGNDDTSYNQNFKGKAKLTAVTSATTAYMELSSLTIDDSAVYYCTRHTYDEVFDYWGQGTTVTVSS
VL: B3 VL with Q3V, F11L, R24K, A51G, A53N, T56A, V58I, T85I, I94T
notes: murine hybridoma mAb; also called 3B12HS
Q: How did the EC50 [1] turn out when B4 was run?
A: 0.55 nM

B5: 6A7 (antibody, V domains shown)
VH: EVQLKESGAELVRPGASVKVSCKASGYSFTSYWMNWVKQRPGQGLEWIGMIHPSDSETKLNQKFRDRASLTVDKSSSTAYMQLSSPTSEDSAVYYCTINYESFYYAMDYWGQGTTVTVSS
VL: DIVMTQSPASLAVSLGQRATISCRASKSVSTSGYSYMHWYQQKPGQPPKLLLYLASNLESGVPARFSGSGSGADFTLNIHPVEEEDAATYYCLHSRELPYTFGGGTKLEIK
notes: murine hybridoma mAb
Q: How did the EC50 [1] turn out when B5 was run?
A: 1.35 nM

B6: 10D2 (antibody, V domains shown)
VH: EVQLQQSGPELKKPGETVKISCKASGYTFTDYSMHWVKQAPGKGLKWMGWINTETGQPTYADDFKGRFAFSLETSASSAYLQINNLKNEDTATYFCTRTFYYDYVGDYWGQGTTVTVSS
VL: DIVMTQSHKFMSTSVGDRVSITCKASQDVSTAVAWYRQKPGQSPKLLIYWASTRHTGVPDRLTGSGSGTDFALTINSVQAEDLALYYCQQHSSTPYTFGGGTKLEIK
notes: murine hybridoma mAb
Q: Which EC50 [1] does the source give for B6 here?
A: 2.54 nM

B7: 8E5 (antibody, V domains shown)
VH: EVQLKESGPELKKPGETVKISCKASGYTLTDFSMHWLKQAPGKGLKWMGWINTETGAPTYADDFKGRFALSLDTSANTAYLQINNLKNEDTATYFCSRGRDYDPHFDYWGQGTTVTVSS
VL: EIVLTQSPATLSVTPGDRVSLSCRASQSISDFLHWYQQRSHESPRLLIKYASQSISGIPSRFGGSGSGSDFTLNINTVEPEDVGMYYCQSAHSFPYTFGGGTKLEIK
notes: murine hybridoma mAb; also called 8ES
Q: B7 was tested. Which EC50 [1] did it give?
A: 0.63 nM

B8: 12E6 (antibody, V domains shown)
VH: EVQLKESGPGILQPSQTLSLTCSFSGFSLSTSGMGVGWIRQPSGKGLEWLAHIWWDDVKLYNPALKSRLTISKETSNNQVFLKIASVDAADTATYYCARIDHGYGSNYWDFDVWGAGTTVTVSS
VL: DIVMTQAAPSVPVTPGGSVSISCRSTKSLLHSDGKTYLYWFLQRPGQSPQLLIYRMSNLASGVPDRFSGSGSGTAFTLRISRVEAEDVGVYYCMQHLEYPFTFGSGTKLEIK
notes: murine hybridoma mAb
Q: Which EC50 [1] does the source give for B8 here?
A: 10.1 nM

B9: 1CP-117 (antibody, human IgG1, kappa, V domains shown)
VH: QVQLVQSGSELKKPGASVKVSCKASGYTLTDFSMHWVRQAPGQGLEWMGWINTETGAPTYADDFKGRFVLSLDTSVSTAYLQISSLKAEDTAVYYCSRGRDYDPHFDYWGQGTLVTVSS
VL: EIVLTQSPATLSLSPGERATLSCRASQSISDFLHWYQQKPGQSPRLLIKYASQSISGIPARFSGSGSGSDFTLTISSVEPEDFAVYYCQSAHSFPYTFGQGTKLEIKR
notes: humanized 8E5, human IgG1 kappa
Q: Which results are given for B9?
A: Kd (HuCDCP1-C): 0.259 nM; koff (HuCDCP1-C): 3.93e-05 s⁻¹; kon (HuCDCP1-C): 152000 M⁻¹ s⁻¹; Kd (HuCDCP1-A): 76.5 nM; EC50 [2]: 1.3 nM

B10: 1CP-121 (antibody, human IgG1, kappa, V domains shown)
VH: B9 VH
VL: B9 VL with P40S
notes: as for B9
Q: Which Kd (HuCDCP1-C) does the source give for B10 here?
A: ≤ 0.0675 nM

Q: And the koff (HuCDCP1-C)?
A: ≤ 1e-05 s⁻¹

Q: And the kon (HuCDCP1-C)?
A: 148000 M⁻¹ s⁻¹

Q: What about the Kd (HuCDCP1-A) of the same binder?
A: 99.8 nM

Q: What about the EC50 [2] of the same binder?
A: 1.37 nM

B11: G10F6 (antibody, V domains shown)
VH: EVKLVESGPGILQPSQTLSLTCSFSGFSLSTSGMGVSWVRQPSGKGLEWLAHIYWDDDKRYNPSLKGRLTISKDTPRNQVFLEITSVDTTDTATYYCARVPGNWDEDAMDYWGQGTTVTVSS
VL: DIQMTQSPLSLPVSLGDQASISCRSSQNIVHTNGNTYLEWYLQKVGQSPKLLIYKVSNRFSGVPDRFSGSGSGTDFTLKISRVEAEDLGVYYCFQGSHVPYTFGGGTKLEIK
notes: murine hybridoma mAb
Q: For B11, which EC50 [1] is on record?
A: 0.23 nM

B12: 14A10C5 (antibody, V domains shown)
VH: EVKLVESGPGILQPSQTLSLTCSFSGFSLSTSGMGVSWIRQPSGKGLEWLAHIYWDDEKRYNPSLKSRLTISKDTSSNQVFLKITSVDTADTATYYCAREGSANWEAMDYWGQGTTVTVSS
VL: B11 VL with Q3V, S7A, P8A, H31Y, N35I, V45P, G73A, G96S, Y101W
notes: murine hybridoma mAb; also called 14A10CS
Q: Which EC50 [1] does the source give for B12 here?
A: 0.1 nM

B13: 3F1A11 (antibody, V domains shown)
VH: EVKLVESGPGLVKPSQSLSLTCTVTGYSITSDYAWNWIRQFPGNKLEWMGYISYNTYTSYNPSLKSRISVTRDTSKNQFFLQLKSVTIEDTATYFCAGGDYYGTGAVDYWGQGTTVTVSS
VL: EIVLTQSPLSLPVSLGDQASISCRSRQTLVHTNGNTYLDWYLQKPGQSPKLLIYKVSIRFSGVPDRFSGSRSGTDFTLKISRVEAEDLGIYYCFQGSHVPWTFGGGTKLEIK
notes: murine hybridoma mAb
Q: With B13 as the binder, how does the EC50 [1] read?
A: 0.41 nM
